Measurements reported in patent US20220162259A1, “PEPTIDE COMPLEX AND PRODUCTION METHOD THEREFOR, AND USE OF SAID PEPTIDE COMPLEX” (KANEKA CORPORATION, priority 2019, published 2022).
Numbered stars: 1 amine (or outer) side, 2 acyl side, 3 side chain; on linkers, the order of the positions; unused ones are H or OH. Bridge positions count the residues as written; N and C are the ends. Square brackets hold non-standard residues; d marks the D form. Ends that are not written are not given here. Peptide text beside a SMILES is read from it. * marks the point of attachment. X1 = NC(N)=NCCNC(=O)CCOCC(COCCC(=O)NCCN=C(N)N)(COCCC(=O)NCCN=C(N)N)NC(=O)CON=C(C[*:1])C[*:2]; FITC = O=C1OC2(c3ccc(O)cc3Oc3cc(O)ccc32)c2ccc(NC(=S)*)cc21; Ahx = NCCCCCC(=O)O

System: HeLa cells
Assay: Evaluation of cell-membrane permeability (flow cytometry of FITC-labelled peptide complexes)
Assay type: cell-based, Human
Details: for Mode of fluorescence intensity, 0 hour of culture / Mode of fluorescence intensity, 1 hour of culture: 2 μM peptide complex, flow cytometer; for Mode of fluorescence intensity, 0 hour of culture: living (propidium iodide-negative) cells; for Mode of fluorescence intensity, 1 hour of culture: 37° C., 5% CO2, living (propidium iodide-negative) cells; for Level of cell-membrane permeation compared with Comparative Example 1: at 1 hour of culture, versus peptide complex of Comparative Example 1
Procedure: HeLa cells (Human cervix adenocarcinoma cells) were cultured for 1 hour in a cell culture containing 2 μM of the peptide complex synthesized in Example 1 or 2 or Comparative Example 1 under conditions of 5% (v/v) CO2 and 37° C. For culturing the HeLa cells, FluoroBrite D-MEM (obtained from ThermoFisher Co.) (supplemented with 10% (v/v) FCS (fetal calf serum) and 10% (v/v) GlutaMax (obtained from ThermoFisher Co.)) was used.
Next, the surfaces of the cells were washed with D-PBS (−) (supplemented with heparin (20 units/mL)), followed by recovery of the cells. The cells were suspended in D-PBS(−) (supplemented with 0.5% (v/v) BSA (bovine serum albumin), 200 mM EDTA (ethylenediaminetetraacetic acid), and 0.2% (v/v) propidium iodide (obtained from Sigma-Aldrich Co.)). A flow cytometer (BD FACS AriaIII) was used to measure fluorescence intensity. Upon flow cytometry analysis, the mode of fluorescence intensity was calculated for a population of living cells excluding dead cells that were propidium iodide-positive. As a control, dimethyl sulfoxide (DMSO) not containing the peptide complex was tested in the same manner.

| Compound | Mode of fluorescence intensity, 0 hour of culture | Mode of fluorescence intensity, 1 hour of culture | Level of cell-membrane permeation compared with Comparative Example 1 |
| --- | --- | --- | --- |
| CC[C@H](C)[C@@H]1NC(=O)[C@H](Cc2ccc(O)cc2)NC(=O)[C@H](CC(C)C)NC(=O)[C@H](CCSC)NC(=O)[C@@H](NC(=O)CCCCCNC(=S)Nc2ccc3c(c2)C(=O)OC32c3ccc(O)cc3Oc3cc(O)ccc32)CSCC(=NOCC(=O)NC(COCCC(=O)NCCN=C(N)N)(COCCC(=O)NCCN=C(N)N)COCCC(=O)NCCN=C(N)N)CSC[C@@H](C(N)=O)NC(=O)CNC(=O)[C@H](C(C)C)NC(=O)[C@H](CO)NC(=O)[C@H](Cc2ccccc2)NC(=O)[C@H](Cc2ccc(O)cc2)NC(=O)[C@@H]2CCCN2C(=O)[C@H](C(C)C)NC1=O [Comparative Example 1, reference compound] ({FITC-Ahx}-CMLYIVPYFSVGC-NH2; linker 1-13 via X1) | 66.6 | 412 |  |
| Example 1: FITC-labelled cyclic peptide CMLYIVPYFSVGC with cell-membrane-permeability-imparting group G6 (two dendritic units, six guanidino groups) bound by oxime ligation ([Ahx]CMLYIVPYFSVGC-NH2; not fully specified (bridges); numbers in words are those of the source; also: cyclic, mode not given here, FITC label, place not given here, G6 guanidino dendron bound by oxime ligation, place not given here) | 60 | 730 | higher levels of cell-membrane permeation |
| Example 2: FITC-labelled cyclic peptide CMLYIVPYFSVGC with cell-membrane-permeability-imparting group G9 (three dendritic units, nine guanidino groups) bound by oxime ligation (not fully specified (N-terminus, C-terminus, bridges); also: cyclic, mode not given here, FITC label, place not given here, G9 guanidino dendron bound by oxime ligation, place not given here) | 65.8 | 877 | higher levels of cell-membrane permeation |
